Here are results for five molecules from publication PMC9719539 (2022).

B1: integrin αVβ3 on intact cells (receptor)
chain 1: FNLDVDSPAEYSGPEGSYFGFAVDFFVPSASSRMFLLVGAPKANTTQPGIVEGGQVLKCDWSSTRRCQPIEFDATGNRDYAKDDPLEFKSHQWFGASVRSKQDKILACAPLYHWRTEMKQEREPVGTCFLQDGTKTVEYAPCRSQDIDADGQGFCQGGFSIDFTKADRVLLGGPGSFYWQGQLISDQVAEIVSKYDPNVYSIKYNNQLATRTAQAIFDDSYLGYSVAVGDFNGDGIDDFVSGVPRAARTLGMVYIYDGKNMSSLYNFTGEQMAAYFGFSVAATDINGDDYADVFIGAPLFMDRGSDGKLQEVGQVSVSLQRASGDFQTTKLNGFEVFARFGSAIAPLGDLDQDGFNDIAIAAPYGGEDKKGIVYIFNGRSTGLNAVPSQILEGQWAARSMPPSFGYSMKGATDIDKNGYPDLIVGAFGVDRAILYRARPVITVNAGLEVYPSILNQDNKTCSLPGTALKVSCFNVRFCLKADGKGVLPRKLNFQVELLLDKLKQKGAIRRALFLYSRSPSHSKNMTISRGGLMQCEELIAYLRDESEFRDKLTPITIFMEYRLDYRTAADTTGLQPILNQFTPANISRQAHILLDCGEDNVCKPKLEVSVDSDQKKIYIGDDNPLTLIVKAQNQGEGAYEAELIVSIPLQADFIGVVRNNEALARLSCAFKTENQTRQVVCDLGNPMKAGTQLLAGLRFSVHQQSEMDTSVKFDLQIQSSNLFDKVSPVVSHKVDLAVLAAVEIRGVSSPDHVFLPIPNWEHKENPETEEDVGPVVQHIYELRNNGPSSFSKAMLHLQWPYKYNNNTLLYILHYDIDGPMNCTSDMEINPLRIKISSLQTTEKNDTVAGQGERDHLITKRDLALSEGDIHTLGCGVAQCLKIVCQVGRLDRGKSAILYVKSLLWTETFMNKENQNHSYSLKSSASFNVIEFPYKNLPIEDITNSTLVTTNVTWGIQPAPMPVPVWVIILAVLAGLLLLAVLVFVMYRMGFFKRVRPPQEEQEREQLQPHENGEGNSET
chain 2: GPNICTTRGVSSCQQCLAVSPMCAWCSDEALPLGSPRCDLKENLLKDNCAPESIEFPVSEARVLEDRPLSDKGSGDSSQVTQVSPQRIALRLRPDDSKNFSIQVRQVEDYPVDIYYLMDLSYSMKDDLWSIQNLGTKLATQMRKLTSNLRIGFGAFVDKPVSPYMYISPPEALENPCYDMKTTCLPMFGYKHVLTLTDQVTRFNEEVKKQSVSRNRDAPEGGFDAIMQATVCDEKIGWRNDASHLLVFTTDAKTHIALDGRLAGIVQPNDGQCHVGSDNHYSASTTMDYPSLGLMTEKLSQKNINLIFAVTENVVNLYQNYSELIPGTTVGVLSMDSSNVLQLIVDAYGKIRSKVELEVRDLPEELSLSFNATCLNNEVIPGLKSCMGLKIGDTVSFSIEAKVRGCPQEKEKSFTIKPVGFKDSLIVQVTFDCDCACQAQAEPNSHRCNNGNGTFECGVCRCGPGWLGSQCECSEEDYRPSQQDECSPREGQPVCSQRGECLCGQCVCHSSDFGKITGKYCECDDFSCVRYKGEMCSGHGQCSCGDCLCDSDWTGYYCNCTTRTDTCMSSNGLLCSGRGKCECGSCVCIQPGSYGDTCEKCPTCPDACTFKKECVECKKFDRGALHDENTCNRYCRDEIESVKELKDTGKDAVNCTYKNEDDCVVRFQYYEDSSGKSILYVVEEPECPKGPDILVVLLSVMGAILLIGLAALLIWKLLITIHDRKEFAKFEEERARAKWDTANNPLYKEATSTFTNITYRGT
B2: integrin αVβ5 on intact cells (receptor)
chain 1: B1 chain 1
chain 2: GLNICTSGSATSCEECLLIHPKCAWCSKEDFGSPRSITSRCDLRANLVKNGCGGEIESPASSFHVLRSLPLSSKGSGSAGWDVIQMTPQEIAVNLRPGDKTTFQLQVRQVEDYPVDLYYLMDLSLSMKDDLDNIRSLGTKLAEEMRKLTSNFRLGFGSFVDKDISPFSYTAPRYQTNPCIGYKLFPNCVPSFGFRHLLPLTDRVDSFNEEVRKQRVSRNRDAPEGGFDAVLQAAVCKEKIGWRKDALHLLVFTTDDVPHIALDGKLGGLVQPHDGQCHLNEANEYTASNQMDYPSLALLGEKLAENNINLIFAVTKNHYMLYKNFTALIPGTTVEILDGDSKNIIQLIINAYNSIRSKVELSVWDQPEDLNLFFTATCQDGVSYPGQRKCEGLKIGDTASFEVSLEARSCPSRHTEHVFALRPVGFRDSLEVGVTYNCTCGCSVGLEPNSARCNGSGTYVCGLCECSPGYLGTRCECQDGENQSVYQNLCREAEGKPLCSGRGDCSCNQCSCFESEFGKIYGPFCECDNFSCARNKGVLCSGHGECHCGECKCHAGYIGDNCNCSTDISTCRGRDGQICSERGHCLCGQCQCTEPGAFGEMCEKCPTCPDACSTKRDCVECLLLHSGKPDNQTCHSLCRDEVITWVDTIVKDDQEAVLCFYKTAKDCVMMFTYVELPSGKSNLTVLREPECGNTPNAMTILLAVVGSILLVGLALLAIWKLLVTIHDRREFAKFQSERSRARYEMASNPLYRKPISTHTVDFTFNKFNKSYNGTVD
B3: Biogen-αVβ1.5 Fab (Fab, V domains shown)
VH: EVQLVESGGGVVQPGRSLRLSCAASGFTFKYYGMHWVRQAPGKGLEWVASIWYDGSNKKYADSVKGRFTISRDNSKNTLYLQMNSLRAEDTAVYYCARGGPTRGDGTRVYYYGMDVWGQGTTVTVSS
VL: EIVMTQSPATLSVSPGERATLSCRASQSVSSNLAWYQQKPGQAPRLLIYSASTRATGIPARFSGSGSGTEFTLTISSLQSEDFAVYYCQQYYHHPFTFGGGTKVEIK

In assay [1] the target is IPI-αVβ3.13. Nature of the assay: FACS; L15 medium.
Assay [2] deals with IPI-αVβ5.9. Nature of the assay: FACS; L15 medium.
In assay [3] the target is IPI-αVβ3.13. In words: FACS; L15 + 1 mM Mn2+. A general note: In flow cytometry, cells or beads pass a laser one at a time.
Assay [4] concerns the target IPI-αVβ5.9. In words: FACS; L15 + 1 mM Mn2+.
Assay [5] deals with T1, integrin α5β1 on intact cells (human, UniProt P08648 42-1049; P05556 21-798). Nature of the assay: FACS.
Assay [6] deals with B1. In words: FACS.
The target of assay [7] is integrin αVβ1 on intact cells (human, UniProt P06756 31-1048; P05556 21-798). In words: FACS.
In assay [8] the target is T1, integrin α5β1 on intact cells. Nature of the assay: FACS. This is another data set of the same source.

Like-named read-outs stand apart in the source and are kept apart here. Positions of bridges follow the written chain, without caps; N, C: chain ends. Non-standard residues stand in square brackets, D forms with d. No end group written: not given here.

One may read the Kd as the free concentration of one partner at which half of the binding sites on the other are occupied at equilibrium, for simple one-to-one binding.

T1 sequence (P08648 42-1049, chain 1 of 2): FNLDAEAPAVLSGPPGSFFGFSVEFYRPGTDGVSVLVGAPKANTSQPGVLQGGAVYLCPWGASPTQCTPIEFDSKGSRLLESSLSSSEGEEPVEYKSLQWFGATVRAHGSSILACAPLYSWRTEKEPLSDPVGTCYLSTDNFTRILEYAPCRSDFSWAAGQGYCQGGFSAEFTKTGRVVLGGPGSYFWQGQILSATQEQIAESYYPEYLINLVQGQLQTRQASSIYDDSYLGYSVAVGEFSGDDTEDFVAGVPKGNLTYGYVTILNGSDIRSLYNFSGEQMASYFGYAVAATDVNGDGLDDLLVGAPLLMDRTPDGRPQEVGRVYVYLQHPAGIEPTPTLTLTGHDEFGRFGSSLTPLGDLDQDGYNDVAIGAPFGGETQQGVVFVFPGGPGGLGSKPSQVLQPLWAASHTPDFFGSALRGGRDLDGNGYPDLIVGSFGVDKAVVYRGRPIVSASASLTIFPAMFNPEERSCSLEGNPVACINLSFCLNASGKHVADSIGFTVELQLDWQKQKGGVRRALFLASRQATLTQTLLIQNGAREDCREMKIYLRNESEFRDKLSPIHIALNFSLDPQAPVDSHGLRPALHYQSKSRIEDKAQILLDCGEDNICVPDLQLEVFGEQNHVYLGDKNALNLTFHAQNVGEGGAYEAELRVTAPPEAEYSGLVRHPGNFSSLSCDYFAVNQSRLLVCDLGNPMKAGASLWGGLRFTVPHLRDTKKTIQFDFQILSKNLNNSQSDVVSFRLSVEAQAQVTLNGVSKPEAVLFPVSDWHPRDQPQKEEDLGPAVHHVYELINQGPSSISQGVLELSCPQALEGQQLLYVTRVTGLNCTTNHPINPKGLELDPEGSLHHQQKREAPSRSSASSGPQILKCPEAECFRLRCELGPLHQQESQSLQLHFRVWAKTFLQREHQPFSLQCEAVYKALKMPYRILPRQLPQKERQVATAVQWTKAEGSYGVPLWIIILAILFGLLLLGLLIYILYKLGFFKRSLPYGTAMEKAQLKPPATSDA
T1 sequence (P05556 21-798, chain 2 of 2): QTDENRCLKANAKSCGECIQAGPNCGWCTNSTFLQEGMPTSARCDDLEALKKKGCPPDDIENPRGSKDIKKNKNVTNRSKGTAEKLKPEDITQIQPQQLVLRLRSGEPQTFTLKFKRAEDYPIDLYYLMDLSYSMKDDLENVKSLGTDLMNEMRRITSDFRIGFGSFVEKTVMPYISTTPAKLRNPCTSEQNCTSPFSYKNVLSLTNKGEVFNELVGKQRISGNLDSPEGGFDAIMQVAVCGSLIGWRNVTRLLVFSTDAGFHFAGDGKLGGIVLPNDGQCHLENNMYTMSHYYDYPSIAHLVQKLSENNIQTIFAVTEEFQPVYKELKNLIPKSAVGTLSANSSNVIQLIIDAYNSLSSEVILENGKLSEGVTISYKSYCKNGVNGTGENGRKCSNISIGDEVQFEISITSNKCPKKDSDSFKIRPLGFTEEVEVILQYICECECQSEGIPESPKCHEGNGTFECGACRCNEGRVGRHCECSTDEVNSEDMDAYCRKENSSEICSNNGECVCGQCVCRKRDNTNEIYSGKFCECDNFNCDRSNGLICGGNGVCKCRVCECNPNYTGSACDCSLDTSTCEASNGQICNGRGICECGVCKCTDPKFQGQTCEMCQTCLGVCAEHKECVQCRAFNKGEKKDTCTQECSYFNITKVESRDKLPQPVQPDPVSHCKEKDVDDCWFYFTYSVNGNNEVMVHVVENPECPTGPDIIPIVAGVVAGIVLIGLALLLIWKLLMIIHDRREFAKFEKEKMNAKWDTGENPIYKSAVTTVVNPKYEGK
Chain of integrin αVβ1 on intact cells (P05556 21-798, one chain of several): as the sequence (P05556 21-798, chain 2 of 2) above

For B1, the Kd with IPI-αVβ3.13 [1] came out at 56 nM; in the assay with IPI-αVβ5.9 [2] it was 10000 nM; with IPI-αVβ3.13 [3] it was 23 nM; with IPI-αVβ5.9 [4] it was 16000 nM.

As to B2, the Kd is 43 nM with IPI-αVβ5.9 [2], 50000 nM with IPI-αVβ3.13 [3] and 24 nM with IPI-αVβ5.9 [4].

As for ACRGDGWCGK (disulfide 2-8 (inferred)) [cyclic-ACRGDGWCGK], the Kd in assay [5] was determined as 3700 nM.

For the molecule B3, the Kd in assay [6] was found to be 78000 nM; in assay [7], 24 nM.

For cyclo(RGD[dF]K) [cyclo[Arg-Gly-Asp-D-Phe-Lys] (cRGDfK)], the affinity in assay [8], expressed as Kd, was 86 nM.
